Test results as given in publication PMC8618245, “Mechanisms of CP190 Interaction with Architectural Proteins in Drosophila Melanogaster” (International Journal of Molecular Sciences, 2021).

T1: 6×His-Thioredoxin-fused CP190 1–126 (BTB domain) (Drosophila melanogaster), Q24478
T1 chain: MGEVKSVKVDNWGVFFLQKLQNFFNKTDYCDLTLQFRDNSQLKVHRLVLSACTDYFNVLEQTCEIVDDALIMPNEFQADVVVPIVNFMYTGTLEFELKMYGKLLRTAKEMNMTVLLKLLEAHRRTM

B1: 6×His-Thioredoxin-fused CP190 1–126 L118A (domain or fragment, Drosophila melanogaster, UniProt Q24478 1-126, looked up)
chain: MGEVKSVKVDNWGVFFLQKLQNFFNKTDYCDLTLQFRDNSQLKVHRLVLSACTDYFNVLEQTCEIVDDALIMPNEFQADVVVPIVNFMYTGTLEFELKMYGKLLRTAKEMNMTVLLKALEAHRRTM
notes: CP190, Drosophila melanogaster, residues 1–126 (BTB domain); also called BTB^L118A; source: E. coli BL21, co-expressed with the GST fusion, in lysate (pull-down); bacterial expression (cross-linking)
B2: 6×His-Thioredoxin-fused CP190 1–126 F15A (domain or fragment, Drosophila melanogaster, UniProt Q24478 1-126, looked up)
chain: MGEVKSVKVDNWGVAFLQKLQNFFNKTDYCDLTLQFRDNSQLKVHRLVLSACTDYFNVLEQTCEIVDDALIMPNEFQADVVVPIVNFMYTGTLEFELKMYGKLLRTAKEMNMTVLLKLLEAHRRTM
notes: CP190, Drosophila melanogaster, residues 1–126 (BTB domain); source: E. coli BL21, co-expressed with the GST fusion, in lysate (pull-down); bacterial expression (cross-linking)
B3: 6×His-Thioredoxin-fused CP190 1–126 K19A (domain or fragment, Drosophila melanogaster, UniProt Q24478 1-126, looked up)
chain: MGEVKSVKVDNWGVFFLQALQNFFNKTDYCDLTLQFRDNSQLKVHRLVLSACTDYFNVLEQTCEIVDDALIMPNEFQADVVVPIVNFMYTGTLEFELKMYGKLLRTAKEMNMTVLLKLLEAHRRTM
notes: as for B2
B4: 6×His-Thioredoxin-fused CP190 1–126 V7A (domain or fragment, Drosophila melanogaster, UniProt Q24478 1-126, looked up)
chain: MGEVKSAKVDNWGVFFLQKLQNFFNKTDYCDLTLQFRDNSQLKVHRLVLSACTDYFNVLEQTCEIVDDALIMPNEFQADVVVPIVNFMYTGTLEFELKMYGKLLRTAKEMNMTVLLKLLEAHRRTM
notes: CP190, Drosophila melanogaster, residues 1–126 (BTB domain); also called BTB^V7A; source: E. coli BL21, co-expressed with the GST fusion, in lysate (pull-down); bacterial expression (cross-linking)
B5: 6×His-Thioredoxin-fused CP190 1–126 V114A (domain or fragment, Drosophila melanogaster, UniProt Q24478 1-126, looked up)
chain: MGEVKSVKVDNWGVFFLQKLQNFFNKTDYCDLTLQFRDNSQLKVHRLVLSACTDYFNVLEQTCEIVDDALIMPNEFQADVVVPIVNFMYTGTLEFELKMYGKLLRTAKEMNMTALLKLLEAHRRTM
notes: as for B2
B6: 6×His-Thioredoxin-fused CP190 1–126 V114N (domain or fragment, Drosophila melanogaster, UniProt Q24478 1-126, looked up)
chain: MGEVKSVKVDNWGVFFLQKLQNFFNKTDYCDLTLQFRDNSQLKVHRLVLSACTDYFNVLEQTCEIVDDALIMPNEFQADVVVPIVNFMYTGTLEFELKMYGKLLRTAKEMNMTNLLKLLEAHRRTM
notes: as for B2
B7: 6×His-Thioredoxin-fused CP190 1–126 K117S (domain or fragment, Drosophila melanogaster, UniProt Q24478 1-126, looked up)
chain: MGEVKSVKVDNWGVFFLQKLQNFFNKTDYCDLTLQFRDNSQLKVHRLVLSACTDYFNVLEQTCEIVDDALIMPNEFQADVVVPIVNFMYTGTLEFELKMYGKLLRTAKEMNMTVLLSLLEAHRRTM
notes: as for B2
B8: 6×His-Thioredoxin-fused CP190 1–126 (BTB domain), Q24478 1-126 (domain or fragment)
chain: MGEVKSVKVDNWGVFFLQKLQNFFNKTDYCDLTLQFRDNSQLKVHRLVLSACTDYFNVLEQTCEIVDDALIMPNEFQADVVVPIVNFMYTGTLEFELKMYGKLLRTAKEMNMTVLLKLLEAHRRTM

Biological target: the molecule itself
Assay: cross-linking; glutaraldehyde, thioredoxin-fused BTB domains at 5 μM, 10 min at room temperature, 20 mM HEPES pH 7.7, 150 mM NaCl, 20 mM imidazole, 1 mM β-mercaptoethanol; SDS-PAGE, silver staining
Conditions: not given

Stoichiometry N, 2:
B1, B2, B3, B4, B5, B6, B7

Biological target: T1, 6×His-Thioredoxin-fused CP190 1–126 …
Assay: as above
Conditions: remark: other sources report otherwise

Stoichiometry N, 2:
B8
